The target in experiment [1] is T1, cynomolgus MSLN-His-Avi (cynomolgus, single biotin (BirA) in the biotinylated form).
T1 construct: Monomeric, made in HEK293-6E; also called cMSLN-His-Avi; cyno MSLN-His-Avi
T1 chain: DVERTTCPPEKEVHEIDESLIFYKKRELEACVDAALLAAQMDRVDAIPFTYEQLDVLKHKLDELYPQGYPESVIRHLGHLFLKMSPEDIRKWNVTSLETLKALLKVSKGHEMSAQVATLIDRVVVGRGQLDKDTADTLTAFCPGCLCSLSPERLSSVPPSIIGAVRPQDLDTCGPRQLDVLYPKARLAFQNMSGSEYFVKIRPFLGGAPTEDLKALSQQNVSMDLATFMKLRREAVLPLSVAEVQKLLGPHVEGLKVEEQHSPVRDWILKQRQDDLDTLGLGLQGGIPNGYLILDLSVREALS
As to the kind of experiment: SPR steady-state analysis, cMSLN-His-Avi coated at about 50 RU. How it is done:
The association time was 1000 sec to steady state and the dissociation time was 30 sec. Running buffer was HBS-EP (GE Healthcare BR100188). Flow cells were regenerated by injecting Glycine-HCl pH1.5 at a flow rate of 30 μl/min for 30 seconds. Data were analysed by double referencing against a flow cell which was intentionally left blank (no antigen coating). Steady state affinity model was used to analyse kinetic data using the BiaEvaluation software version 3.2.

Experiment [2] concerns the target T2, cell surface human mesothelin (MSLN) (human, UniProt Q13421 296-598).
T2 construct: whole, on cells; also called cell surface MSLN
Put plainly: flow cytometry (BD CantoII), NCI-H226 cells.

Experiment [3] addresses T3, human MSLN-His-Avi (human, UniProt Q13421 296-598, single biotin (BirA) in the biotinylated form).
T3 construct: Monomeric, made in HEK293-6E; Used both immobilised and in solution; also called hMSLN-His-Avi; biotinylated hMSLN-His-Avi
Put plainly: ratio of the two SPR KD. Put shortly:
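mAb² clones were tested on two SPR set-ups. In the first, human MSLN-His-Avi was amine-coupled to CM5 (~200 RU) and ~50 nM antibody was injected. In the second, clones were captured on Protein G (~100 RU) and human or cyno MSLN (1000-0.051 nM, 3-fold) was flowed in HBS-EP with 900 mM […] for 5 min association/5 min dissociation. The value is the ratio of the two KD.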

For experiment [4], the target named is T3, human MSLN-His-Avi. Put plainly: SPR (Biacore), mAb^2 captured on Protein G, MSLN in solution injected. (In SPR one partner is held on a chip, and binding of the other changes the refractive index at the surface.)
For experiment [5], the target named is T1, cynomolgus MSLN-His-Avi. The experiment is described as above.
The target of experiment [6] is T3, human MSLN-His-Avi. As to the kind of experiment: SPR (Biacore), MSLN immobilised, mAb^2 injected. An outline of the steps:
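Human MSLN-His-Avi amine-coupled to CM5 chip at about 200 RU, blank reference cell subtracted. Anti-MSLN mAb² (supernatant or purified) at about 50 nM in HBS-EP+ injected 2.5 min at 30 μl/min, 2.5 min dissociation; 10 mM glycine pH 1.5 regeneration.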

The target in experiment [7] is T2, cell surface human mesothelin (MSLN). As to the kind of experiment: flow cytometry (BD CantoII), NCI-H226 cells + 20 nM soluble MSLN. On the technique in general: In flow cytometry, cells or beads pass a laser one at a time.
The target of experiment [8] is T1, cynomolgus MSLN-His-Avi. As to the kind of experiment: SPR (see Table 4).
Experiment [9] addresses T2, cell surface human mesothelin (MSLN). As to the kind of experiment: flow cytometry, NCI-H226 cells.
Experiment [10] has the same target. As to the kind of experiment: flow cytometry, NCI-H226 cells + 20 nM soluble MSLN.

T2 sequence (Q13421 other isoform, or with tags, fused parts or gaps limits assumed): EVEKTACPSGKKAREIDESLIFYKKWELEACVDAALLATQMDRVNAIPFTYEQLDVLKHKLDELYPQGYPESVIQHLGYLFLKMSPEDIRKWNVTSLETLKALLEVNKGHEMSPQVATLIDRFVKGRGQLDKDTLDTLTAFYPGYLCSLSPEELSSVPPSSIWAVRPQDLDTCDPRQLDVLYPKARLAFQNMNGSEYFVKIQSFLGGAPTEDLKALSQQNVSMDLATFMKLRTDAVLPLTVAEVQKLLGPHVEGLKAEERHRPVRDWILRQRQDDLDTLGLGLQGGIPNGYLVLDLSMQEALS
T3 sequence (Q13421 other isoform, or with tags, fused parts or gaps): as the sequence (Q13421 other isoform, or with tags, fused parts or gaps limits assumed) above

B1: FS22-172-003-AA/FS28-256-271 mAb^2 (bispecific antibody, human IgG1, kappa, L234A L235A)
heavy: EVQLLESGGGLVQPGGSLRLSCAASGFTFTHTYMSWVRQAPGKGLEWVSAISPTYSTTNYADSVKGRFTISRDNNKNTLYLQMNSLRAEDTAVYYCARYNAYHAALDYWGQGTLVTVSSASTKGPSVFPLAPSSKSTSGGTAALGCLVKDYFPEPVTVSWNSGALTSGVHTFPAVLQSSGLYSLSSVVTVPSSSLGTQTYICNVNHKPSNTKVDKKVEPKSCDKTHTCPPCPAPEAAGGPSVFLFPPKPKDTLMISRTPEVTCVVVDVSHEDPEVKFNWYVDGVEVHNAKTKPREEQYNSTYRVVSVLTVLHQDWLNGKEYKCKVSNKALPAPIEKTISKAKGQPREPQVYTLPPSRDELPYIIPPYNQVSLTCLVKGFYPSDIAVEWESNGQPENNYKTTPPVLDSDGSFFLYSKLTVGADRWLEGNVFSCSVMHEALHNHYTQKSLSLSPG
light: EIVLTQSPGTLSLSPGERATLSCRASQSVSSSYLAWYQQKPGQAPRLLIYGASSRATGIPDRFSGSGSGTDFTLTISRLEPEDFAVYYCQQTVPYPYTFGQGTKVEIKRTVAAPSVFIFPPSDEQLKSGTASVVCLLNNFYPREAKVQWKVDNALQSGNSQESVTEQDSKDSTYSLSSTLTLSKADYEKHKVYACEVTHQGLSSPVTKSFNRGEC
In the case of B1, the “fold difference of binding to cyno MSLN against human MSLN” value with cynomolgus MSLN-His-Avi [1] was ≤ 3 fold.

B2: FS22-053-008-AA/FS28-185 (bispecific antibody, human IgG1, kappa, L234A L235A, V domains shown)
VH: EVQLLESGGGLVQPGGSLRLSCAASGFTFTTSAMSWVRQAPGKGLEWVSRINPYEGETNYADSVKGRFTISRDNSKNTLYLQMNSLRAEDTAVYYCARGWSIATYYKSAMDYWGQGTLVTVSS
VL: EIVLTQSPGTLSLSPGERATLSCRASQSVSSSYLAWYQQKPGQAPRLLIYGASSRATGIPDRFSGSGSGTDFTLTISRLEPEDFAVYYCQQSSYSAPVTFGQGTKVEIKR
Broadly, the EC50 is the concentration giving half of the maximal effect. For orientation: Kd means the equilibrium constant for the complex coming apart. Low readings indicate higher affinity, high ones lower affinity. B2: the half-maximal effective concentration (EC50) worked out at 16.3 nM in experiment [2] and 14.3 nM in experiment [7]. The “Ratio of KD in solution/immobilised for human MSLN-His-Avi” value with human MSLN-His-Avi [3] was 15. Moreover, the Kd in the experiment with human MSLN-His-Avi [4] was found to be 452 nM; in the experiment with cynomolgus MSLN-His-Avi [5], 362 nM; in the experiment with human MSLN-His-Avi [6], 30.1 nM.

B3: FS22-053-008-AA/FS28-024 mAb^2 (bispecific antibody, human IgG1, kappa, L234A L235A, V domains shown)
VH: EVQLLESGGGLVQPGGSLRLSCAASGFTLSYSSMSWVRQAPGKGLEWVSFITPSTGYTHYADSVKGRFTISRDNSKNTLYLQMNSLRAEDTAVYYCARRALTFDYWGQGTLVTVSS
VL: EIVLTQSPGTLSLSPGERATLSCRASQSVSSSYLAWYQQKPGQAPRLLIYGASSRATGIPDRFSGSGSGTDFTLTISRLEPEDFAVYYCQQASSYPLTFGQGTKVEIKR
notes: also called FS28-024 (in FS22-053-008-AA mAb^2 format); FS28-024 (in CD137 mAb2 format)
B3: in the experiment with cynomolgus MSLN-His-Avi [8], the “fold lower affinity for cyno MSLN than for human MSLN” value is ~5 fold. Also, the EC50 in [9] is 1.47 nM; in experiment [10] it was 5.04 nM. Further, the “Emax (MFI)” value in experiment [9] was determined as 981000 MFI; in experiment [10], 1.02e+06 MFI. Moreover, the “Ratio of KD in solution/immobilised for human MSLN-His-Avi” value in the experiment with human MSLN-His-Avi [3] came out at 119. Also, the Kd with human MSLN-His-Avi [4] was 46.5 nM; with cynomolgus MSLN-His-Avi [5] it was 240 nM; with human MSLN-His-Avi [6], 0.39 nM.

The values are drawn from patent publication US20220267421A1 (INVOX PHARMA, published 2022).
